Experimental findings from article doi:10.1101/2025.07.11.664400 (bioRxiv, 2025) are described below.

Data set [1] deals with T1, RecBΔNucCD (Escherichia coli, UniProt P08394;P07648;P04993 1-929;1-1122;1-608). Kind of data set: fluorescence titration.
Data set [2] has as its target T2, RecBCD (Escherichia coli, UniProt P08394;P07648;P04993 1-1180;1-1122;1-608). Kind of data set: fluorescence titration.
Data set [3] deals with T1, RecBΔNucCD. Kind of data set: fluorescence titration. The source holds these as a separate data set.
For data set [4], the target named is T2, RecBCD. The data set is described as follows: fluorescence competition.
Data set [5] addresses T1, RecBΔNucCD. Kind of data set: fluorescence competition.
Data set [6] has as its target T1, RecBΔNucCD. The data set is described as follows: ITC. Background: ITC needs no label: the signal is the heat of the interaction.
Data set [7] deals with T1, RecBΔNucCD. Kind of data set: ITC. This is another data set of the same source.

B1: Reference DNA (dsDNA)
DNA 1: CCATGGCTCCTGAGCTAGCTGCAGTAGCCTAAAGGATGAAACTAGGATCTTATGCTCCAGTTTT
DNA 2: CTGGAGCATAAGATCCTAGTTTCATCCTTTAGGCTACTGCAGCTAGCTCAGGAGCCATGGTTTT
For B1, the Ka in data set [1] is greater than 2e+09 M⁻¹; in data set [2], 3.2e+07 M⁻¹; in data set [3], 1.6e+08 M⁻¹.

B2: Blunt ended DNA (dsDNA)
DNA 1: CCATGGCTCCTGAGCTAGCTGCAGTAGCCTAAAGGATGAAACTAGGATCTTATGCTCCAG
DNA 2: CTGGAGCATAAGATCCTAGTTTCATCCTTTAGGCTACTGCAGCTAGCTCAGGAGCCATGG
On to B2, for which the Ka in data set [4] was 1.4e+07 M⁻¹; in data set [5] it was 4.7e+07 M⁻¹; in data set [6], greater than 1e+09 M⁻¹; in data set [7], 1.2e+07 M⁻¹.
